Assay results published in PMC2871033 (Structure (London, England : 1993), 2010).

T1: Cwf8-Myc13 (S. pombe Prp19) (S. pombe, UniProt O14011 1-488)
T1 sequence (looked up): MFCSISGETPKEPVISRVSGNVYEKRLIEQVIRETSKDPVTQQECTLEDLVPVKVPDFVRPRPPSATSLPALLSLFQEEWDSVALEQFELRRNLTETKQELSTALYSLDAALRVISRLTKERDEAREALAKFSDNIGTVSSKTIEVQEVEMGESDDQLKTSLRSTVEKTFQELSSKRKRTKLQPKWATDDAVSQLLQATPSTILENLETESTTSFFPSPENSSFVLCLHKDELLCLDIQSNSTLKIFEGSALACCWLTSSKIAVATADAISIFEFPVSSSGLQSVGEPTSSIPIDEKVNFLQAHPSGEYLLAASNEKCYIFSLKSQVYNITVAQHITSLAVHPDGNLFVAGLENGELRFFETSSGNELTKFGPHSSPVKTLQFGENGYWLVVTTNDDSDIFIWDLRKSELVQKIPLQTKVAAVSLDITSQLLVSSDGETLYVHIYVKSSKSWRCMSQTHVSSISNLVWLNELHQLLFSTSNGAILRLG

T2: Prp19, separately purified (analytical ultracentrifugation) (S. cerevisiae), P32523
T2 chain: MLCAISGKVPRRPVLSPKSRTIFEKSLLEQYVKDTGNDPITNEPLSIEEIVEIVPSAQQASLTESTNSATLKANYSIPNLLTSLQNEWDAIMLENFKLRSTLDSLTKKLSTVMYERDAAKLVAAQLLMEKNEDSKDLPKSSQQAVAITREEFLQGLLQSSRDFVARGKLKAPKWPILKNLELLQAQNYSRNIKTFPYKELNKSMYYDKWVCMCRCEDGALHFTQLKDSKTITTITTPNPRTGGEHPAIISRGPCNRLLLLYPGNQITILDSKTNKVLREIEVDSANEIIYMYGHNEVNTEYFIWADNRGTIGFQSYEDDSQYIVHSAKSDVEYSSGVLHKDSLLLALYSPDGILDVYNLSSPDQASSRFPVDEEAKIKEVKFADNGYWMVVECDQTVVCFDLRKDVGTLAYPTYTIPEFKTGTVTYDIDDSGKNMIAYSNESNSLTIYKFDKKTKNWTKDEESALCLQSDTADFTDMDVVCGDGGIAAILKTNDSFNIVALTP


Tests used:
[1] = target: T1, Cwf8-Myc13 (S. pombe Prp19); test: co-IP
[2] = target: T2, Prp19, separately purified (analytical …); test: AUC; conditions: remark: other sources report otherwise

| stoichiometry N [1] | stoichiometry N [2] | Binder |
| --- | --- | --- |
| 2 copies of Cwf2 per four copies of Cwf8 |  | Cwf2-Myc13 (S. pombe Cwc2) (natural protein, UniProt P87126 1-388, looked up) MSENGLEQEVTVEEKNNDVTEKILVEGEKSKEYEETPRKVKIVKRKKQPARKQIETRPEYEMEPEQPGQVYNLWYNKWSGGMRQDPLKSQVKSETRCVISRDSGYTKADKNPGSFFCLYFARGMCSEGSKCEYLHRLPKDTDFFNANVDCFGREKHADYRDDMGGVGSFLRQNYTLYVGGITPTDDIEEIVSRHFAEWGDIERIRVLNSRGIAFITYLNEANAQFAKEAMAHQSLDHDECLNVRWATTDPNPASQARNQRRLEERAANAVKKLLPKQFLLDLEETKNGKSGNRKRKLELEFGLKGYVPSDDLLYADGANSVHNQLAANEFPNKSQSEEGSNDDHKSVTTTESQNKFVNSQILSDLQVAKQAVHTNQSALVSYYDSDED |
|  | 4 | Prp19, separately purified (analytical ultracentrifugation), P32523 1-503 (natural protein) MLCAISGKVPRRPVLSPKSRTIFEKSLLEQYVKDTGNDPITNEPLSIEEIVEIVPSAQQASLTESTNSATLKANYSIPNLLTSLQNEWDAIMLENFKLRSTLDSLTKKLSTVMYERDAAKLVAAQLLMEKNEDSKDLPKSSQQAVAITREEFLQGLLQSSRDFVARGKLKAPKWPILKNLELLQAQNYSRNIKTFPYKELNKSMYYDKWVCMCRCEDGALHFTQLKDSKTITTITTPNPRTGGEHPAIISRGPCNRLLLLYPGNQITILDSKTNKVLREIEVDSANEIIYMYGHNEVNTEYFIWADNRGTIGFQSYEDDSQYIVHSAKSDVEYSSGVLHKDSLLLALYSPDGILDVYNLSSPDQASSRFPVDEEAKIKEVKFADNGYWMVVECDQTVVCFDLRKDVGTLAYPTYTIPEFKTGTVTYDIDDSGKNMIAYSNESNSLTIYKFDKKTKNWTKDEESALCLQSDTADFTDMDVVCGDGGIAAILKTNDSFNIVALTP |
